Experimental data from patent US20230357420A1 (VILLARIS THERAPEUTICS, published 2023).
Like-named read-outs stand apart in the source and are kept apart here.

Tests used:
Human CD122 = target: T1, Human CD122 (human, UniProt P14784 27-551); assay: flow cytometry (FACS) on huIL15Rβ-transfected CHO-K1 cells, anti-human IgG-FITC, GeoMFI
T1 construct: also called hCD122; IL2RB
T1 sequence: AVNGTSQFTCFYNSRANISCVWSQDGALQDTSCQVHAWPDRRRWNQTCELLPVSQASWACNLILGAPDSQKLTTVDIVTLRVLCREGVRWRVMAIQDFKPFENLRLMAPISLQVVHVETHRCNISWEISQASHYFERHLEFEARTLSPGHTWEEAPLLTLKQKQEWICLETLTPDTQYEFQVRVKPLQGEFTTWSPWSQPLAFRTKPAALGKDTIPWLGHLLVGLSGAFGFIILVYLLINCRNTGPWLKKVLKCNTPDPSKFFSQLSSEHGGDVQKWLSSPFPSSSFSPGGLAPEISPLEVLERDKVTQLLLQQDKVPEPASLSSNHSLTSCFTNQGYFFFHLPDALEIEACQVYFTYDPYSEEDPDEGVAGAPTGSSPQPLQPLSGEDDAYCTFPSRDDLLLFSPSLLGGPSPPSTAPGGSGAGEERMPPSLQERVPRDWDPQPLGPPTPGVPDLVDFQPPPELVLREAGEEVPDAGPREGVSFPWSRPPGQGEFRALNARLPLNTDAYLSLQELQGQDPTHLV
Protocol: (§1) Purified IgGs were tested in FACs for binding to human and rhesus CD122 expressed on CHO-K1 stable cell lines and CHO-K1 wild-type cells. The IgG samples were titrated in three-fold serial dilutions starting at 500 nM to […]. Binding of IgGs was detected with a mouse anti-human IgG conjugated to FITC. Results were analyzed by examining the Mean Fluorescence Intensity (MFI) of 10000 cells per sample in the BL-1 channel detector of a flow cytometer (AttuneTM NxT Acoustic Focusing Cytometer, Invitrogen/ ThermoFisher Scientific).

Rhesus CD122 [1] = target: T2, Rhesus CD122 (rhesus monkey, UniProt Q38J85 27-551 (cynomolgus entry)); assay: flow cytometry (FACS) on rhIL15Rβ-transfected CHO-K1 cells, anti-human IgG-FITC, GeoMFI
T2 construct: also called rhCD122 on cells
T2 sequence: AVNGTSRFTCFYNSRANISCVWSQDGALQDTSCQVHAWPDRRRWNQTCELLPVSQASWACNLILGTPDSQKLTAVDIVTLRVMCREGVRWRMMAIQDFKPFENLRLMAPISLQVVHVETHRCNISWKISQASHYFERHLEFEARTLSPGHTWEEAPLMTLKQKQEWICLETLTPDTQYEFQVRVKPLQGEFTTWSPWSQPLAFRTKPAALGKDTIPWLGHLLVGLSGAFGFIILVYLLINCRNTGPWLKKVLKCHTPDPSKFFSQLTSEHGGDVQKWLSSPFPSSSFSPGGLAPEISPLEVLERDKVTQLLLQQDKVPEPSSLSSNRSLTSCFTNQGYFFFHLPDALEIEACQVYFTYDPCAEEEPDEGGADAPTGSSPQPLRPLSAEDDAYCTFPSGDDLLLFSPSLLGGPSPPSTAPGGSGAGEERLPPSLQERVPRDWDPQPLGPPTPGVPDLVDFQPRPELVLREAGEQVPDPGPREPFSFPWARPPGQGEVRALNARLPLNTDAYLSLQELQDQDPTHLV
Protocol: as §1

Rhesus CD122 [2] = target: T2, Rhesus CD122; assay: as above; remark: listed apart in the source
Protocol: as §1

EC50 (read off the curve) (Human CD122): ~0.9 nM | EC50 (read off the curve) (Rhesus CD122 [1]): ~0.6 nM | EC50 (read off the curve) (Rhesus CD122 [2]): ~0.6 nM
B1: IgG1-MIKβ1 (humanized) (antibody, V domains shown)
VH: EVQLLESGGGLVQPGGSLRLSCAASGFSVTSYGVHWIRQAPGKGLEWLGVIWSGGSTDYNAAFISRLTISKDNSKNTVYFQMNSLQAEDTAIYYCARAGDYNYDGFAYWGQGTLVTVSS
VL: DIVLTQSPSSLSASVGDRVTITCSGSSSVSFMYWYQQRPGKAPRLLIYDTSNLASGVPSRFSGSGSGTSYTFTISSLQPEDIATYYCQQWSTYPLTFGQGTKVEVK
notes: also called VillMab-1; VillMAB-1
